Target: Rod photoreceptor cGMP phosphodiesterase 6 (PDE6) (bovine (endogenous in rod outer segments)) (UniProt P11541)

Chain of Prenyl-binding protein (PrBP/δ) (Q95142 whole entry, stated change not applied): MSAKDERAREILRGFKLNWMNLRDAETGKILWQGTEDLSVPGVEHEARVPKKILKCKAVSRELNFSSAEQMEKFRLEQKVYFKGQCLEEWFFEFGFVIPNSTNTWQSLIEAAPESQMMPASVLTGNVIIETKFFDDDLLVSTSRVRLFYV

- Gα*-induced PDE6 activity (50 nM PDE6, 10 µM disc membranes, 1 µM Gα*) against PrBP/δ concentration; fit with two identical PrBP/δ binding sites on soluble PDE6: 0.07 µM
Substance: Prenyl-binding protein (PrBP/δ) (from UniProt Q95142 1-150) (natural protein)
